# In patent US20210292384A1 (LARIX BIOSCIENCE, published 2021):
# Molecular target: T1, RBD domain of SARS-CoV2 spike protein (SARS-CoV-2, UniProt P0DTC2 319-541)
# T1 construct: domain: RBD domain
# Test: Octet (BLI), ACE2-Fc against spike RBD
Binder,Kd [nM],koff [s⁻¹],kon [M⁻¹ s⁻¹]
LB697-D30E/L79W/N330Y (Fc fusion) QSTIEEQAKTFLEKFNHEAEDLFYQSSLASWNYNTNITEENVQNMNNAGDKWSAFLKEQSTWAQMYPLQEIQNLTVKLQLQALQQNGSSVLSEDKSKRLNTILNTMSTIYSTGKVCNPDNPQECLLLEPGLNEIMANSLDYNERLWAWESWRSEVGKQLRPLYEEYVVLKNEMARANHYEDYGDYWRGDYEVNGVDGYDYSRGQLIEDVEHTFEEIKPLYEHLHAYVRAKLMNAYPSYISPIGCLPAHLLGDMWGRFWTNLYSLTVPFGQKPNIDVTDAMVDQAWDAQRIFKEAEKFFVSVGLPNMTQGFWEYSMLTDPGNVQKAVCHPTAWDLGKGDFRILMCTKVTMDDFLTAHHEMGHIQYDMAYAAQPFLLRNGANEGFHEAVGEIMSLSAATPKHLKSIGLLSPDFQEDNETEINFLLKQALTIVGTLPFTYMLEKWRWMVFKGEIPKDQWMKKWWEMKREIVGVVEPVPHDETYCDPASLFHVSNDYSFIRYYTRTLYQFQFQEALCQAAKHEGPLHKCDISNSTEAGQKLFNMLRLGKSEPWTLALENVVGAKNMNVRPLLNYFEPLFTWLKDQNKNSFVGWSTDWSPYAD,1.49,0.0012,808000
LB697-D30E/Q42K/L79W/N330Y (Fc fusion) QSTIEEQAKTFLEKFNHEAEDLFYKSSLASWNYNTNITEENVQNMNNAGDKWSAFLKEQSTWAQMYPLQEIQNLTVKLQLQALQQNGSSVLSEDKSKRLNTILNTMSTIYSTGKVCNPDNPQECLLLEPGLNEIMANSLDYNERLWAWESWRSEVGKQLRPLYEEYVVLKNEMARANHYEDYGDYWRGDYEVNGVDGYDYSRGQLIEDVEHTFEEIKPLYEHLHAYVRAKLMNAYPSYISPIGCLPAHLLGDMWGRFWTNLYSLTVPFGQKPNIDVTDAMVDQAWDAQRIFKEAEKFFVSVGLPNMTQGFWEYSMLTDPGNVQKAVCHPTAWDLGKGDFRILMCTKVTMDDFLTAHHEMGHIQYDMAYAAQPFLLRNGANEGFHEAVGEIMSLSAATPKHLKSIGLLSPDFQEDNETEINFLLKQALTIVGTLPFTYMLEKWRWMVFKGEIPKDQWMKKWWEMKREIVGVVEPVPHDETYCDPASLFHVSNDYSFIRYYTRTLYQFQFQEALCQAAKHEGPLHKCDISNSTEAGQKLFNMLRLGKSEPWTLALENVVGAKNMNVRPLLNYFEPLFTWLKDQNKNSFVGWSTDWSPYAD,0.91,0.00074,810000
